From patent US20150361450, “VECTOR FOR THERAPY OF MITOCHONDRIAL DISEASE” (UNIVERSITE DE STRASBOURG, published 2015)

B1: HF RNA (ssRNA)
RNA: GGUCUUUACAGUGCUUACUUCUCGAGCCCCCUACAGGGCUCCA
B2: HD RNA (ssRNA)
RNA: GCGCAAUCGGUAGCGCCUCUUUACAGUGCUUAGUUCUC

Target: preKARS2 (precursor of human mitochondrial lysyl-tRNA synthetase) (Homo sapiens, UniProt Q15046-2 Q15046-2:1-625)
Test: EMSA; 10 mM MgCl2, 30 C
Details: tags: C-terminal 6xHis, thrombin site and N-terminal 6xHis deleted, label: 5'-32P
Method: Purified RNA was dephosphorylated with alkaline phosphatase (Boehringer Mannheim) and labeled at the 59-end with c-32P-ATP using T4 polynucleotide kinase (Promega). The labeled RNA was denatured at 100° C. and then slowly cooled down to the room temperature. For RNA binding assays, the appropriate amount of protein and labeled RNA were mixed in […] of the buffer containing 20 mM Tris-HCl pH 7.5, 150 mM NaCl, 10 mM MgCl2, 5 mM DTT, 10% glycerol, 0.1 mg/ml BSA and incubated at 30° C. for 15 min. The mixture was separated by native 8% PAGE in […] buffer (pH 8.3) and 5% glycerol, followed by Typhoon-Trio (GE Healthcare) scanning and quantification as described in.

Sequence of preKARS2 (precursor of human mitochondrial lysyl-tRNA synthetase) (Q15046 other isoform, or with tags, fused parts or gaps): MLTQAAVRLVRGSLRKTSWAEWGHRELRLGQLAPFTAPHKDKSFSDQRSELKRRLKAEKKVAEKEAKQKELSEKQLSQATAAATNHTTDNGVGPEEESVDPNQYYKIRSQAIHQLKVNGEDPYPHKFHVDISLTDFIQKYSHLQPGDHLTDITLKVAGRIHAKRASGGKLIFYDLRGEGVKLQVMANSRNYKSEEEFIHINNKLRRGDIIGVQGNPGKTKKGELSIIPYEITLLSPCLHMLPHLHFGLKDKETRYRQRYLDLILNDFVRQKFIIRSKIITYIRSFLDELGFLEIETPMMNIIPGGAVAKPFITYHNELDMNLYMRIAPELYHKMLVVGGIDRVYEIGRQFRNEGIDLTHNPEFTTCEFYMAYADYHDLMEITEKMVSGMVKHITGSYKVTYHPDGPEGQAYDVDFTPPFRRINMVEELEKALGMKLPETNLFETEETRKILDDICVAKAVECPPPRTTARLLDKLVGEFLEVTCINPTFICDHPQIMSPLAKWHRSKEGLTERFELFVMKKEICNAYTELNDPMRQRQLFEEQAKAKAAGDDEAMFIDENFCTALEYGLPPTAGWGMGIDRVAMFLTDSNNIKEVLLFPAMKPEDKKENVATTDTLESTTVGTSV

Row | Binder | binding result (F-hairpin only, D-arm deleted) | binding result (D-arm only, F-hairpin deleted)
1 | B1 | no binding | –
2 | B2 | – | no binding
